Source: doi:10.1101/2020.10.06.326603 (bioRxiv, 2020)
Like-named read-outs stand apart in the source and are kept apart here.

B1: IscS S10Q, H247P, Q248L variant (enzyme, E. coli)
chain: MKLPIYLDYQATTPVDPRVAEKMMQFMTMDGTFGNPASRSHRFGWQAEEAVDIARNQIADLVGADPREIVFTSGATESDNLAIKGAANFYQKKGKHIITSKTEHKAVLDTCRQLEREGFEVTYLAPQRNGIIDLKELEAAMRDDTILVSIMHVNNEIGVVQDIAAIGEMCRARGIIYHVDATQSVGKLPIDLSQLKVDLMSFSGHKIYGPKGIGALYVRRKPRVRIEAQMHGGGHERGMRSGTLPVPLIVGMGEAYRIAKEEMATEMERLRGLRNRLWNGIKDIEEVYLNGDLEHGAPNILNVSFNYVEGESLIMALKDLAVSSGSACTSASLEPSYVLRALGLNDELAHSSIRFSLGRFTTEEEIDYTIELVRKSIGRLRDLSPLWEMYKQGVDLNSIEWAHH

What was measured:
IscS^QPL-IscU complex = IscS^QPL-IscU complex (E. coli, UniProt P0A6B7 1-404; P0ACD4 1-128, S10Q | H247P | Q248L); experiment: native MS
[1] = biological target: B1; experiment: native MS
SEC [2] = biological target: the molecule itself; experiment: SEC
[3] = biological target: the molecule itself; experiment: cell-based or functional assay
[4] = biological target: the molecule itself
SEC [5] = biological target: the molecule itself; experiment: SEC; remark: listed apart in the source

binding result (IscS^QPL-IscU complex) | binding result [1] | Binder | stoichiometry N (SEC [2]) | cysteine desulfurase activity under standard conditions (kcat) [3] [s⁻¹] | Kd [4] [µM] | stoichiometry N (SEC [5])
binds | binds | CyaY (E. coli homolog of frataxin) (natural protein, UniProt P27838 1-106, looked up) MNDSEFHRLADQLWLTIEERLDDWDGDSDIDCEINGGVLTITFENGSKIIINRQEPLHQVWLATKQGGYHFDLKGDEWICDRSGETFWDLLEQAATQQAGETVSFR | – | – | – | –
– | – | IscS S10H, H247P, Q248L variant (enzyme, E. coli) MKLPIYLDYHATTPVDPRVAEKMMQFMTMDGTFGNPASRSHRFGWQAEEAVDIARNQIADLVGADPREIVFTSGATESDNLAIKGAANFYQKKGKHIITSKTEHKAVLDTCRQLEREGFEVTYLAPQRNGIIDLKELEAAMRDDTILVSIMHVNNEIGVVQDIAAIGEMCRARGIIYHVDATQSVGKLPIDLSQLKVDLMSFSGHKIYGPKGIGALYVRRKPRVRIEAQMHGGGHERGMRSGTLPVPLIVGMGEAYRIAKEEMATEMERLRGLRNRLWNGIKDIEEVYLNGDLEHGAPNILNVSFNYVEGESLIMALKDLAVSSGSACTSASLEPSYVLRALGLNDELAHSSIRFSLGRFTTEEEIDYTIELVRKSIGRLRDLSPLWEMYKQGVDLNSIEWAHH | 2 | 0.025 | 8 | –
– | – | B1 | – | 0.00367 | 32 | 2
– | – | IscS S10N, H247P, Q248L variant (enzyme, E. coli) MKLPIYLDYNATTPVDPRVAEKMMQFMTMDGTFGNPASRSHRFGWQAEEAVDIARNQIADLVGADPREIVFTSGATESDNLAIKGAANFYQKKGKHIITSKTEHKAVLDTCRQLEREGFEVTYLAPQRNGIIDLKELEAAMRDDTILVSIMHVNNEIGVVQDIAAIGEMCRARGIIYHVDATQSVGKLPIDLSQLKVDLMSFSGHKIYGPKGIGALYVRRKPRVRIEAQMHGGGHERGMRSGTLPVPLIVGMGEAYRIAKEEMATEMERLRGLRNRLWNGIKDIEEVYLNGDLEHGAPNILNVSFNYVEGESLIMALKDLAVSSGSACTSASLEPSYVLRALGLNDELAHSSIRFSLGRFTTEEEIDYTIELVRKSIGRLRDLSPLWEMYKQGVDLNSIEWAHH | 2 | 0.148 | 0.8 | –
